T1: mouse cKIT ECD (Mus musculus, UniProt P05532)
T1 construct: 3.125-50 nM of cKIT receptor extracellular domains (ECD) were diluted in a 2-fold series
T1 sequence (P05532 25-527 limits assumed): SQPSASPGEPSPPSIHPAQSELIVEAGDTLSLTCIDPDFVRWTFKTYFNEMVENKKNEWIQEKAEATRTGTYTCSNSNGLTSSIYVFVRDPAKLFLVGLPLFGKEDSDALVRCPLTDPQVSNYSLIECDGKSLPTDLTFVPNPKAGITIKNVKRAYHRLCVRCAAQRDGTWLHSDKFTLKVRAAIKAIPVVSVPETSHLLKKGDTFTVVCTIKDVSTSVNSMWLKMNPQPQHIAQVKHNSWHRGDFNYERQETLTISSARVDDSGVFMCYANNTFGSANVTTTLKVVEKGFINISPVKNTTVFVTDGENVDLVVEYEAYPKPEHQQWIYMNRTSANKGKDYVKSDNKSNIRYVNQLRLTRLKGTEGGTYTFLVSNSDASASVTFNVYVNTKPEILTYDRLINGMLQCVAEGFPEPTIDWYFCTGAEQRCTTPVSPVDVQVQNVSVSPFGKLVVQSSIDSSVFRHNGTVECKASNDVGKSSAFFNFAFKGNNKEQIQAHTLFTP

B1: NEG026: anti-cKIT antibody of Table 1, VH SEQ ID NO 46, VL SEQ ID NO 55 (antibody, V domains shown)
VH: EVQLVESGGGLVQPGGSLRLSCAASGFTFSDYYMAWVRQAPGKGLEWVANINQNTGSTYYVDSVQGRFTISRDNAKNSLYLQMNSLRAEDTAVYYCARGDYYGTTYWYFDVWGQGTTVTVSS
VL: EIVMTQSPATLSLSPGERATLSCRASQDISNYLNWYQQKPGQAPRLLIYYTSRLQSGIPARFSGSGSGTDYTLTISSLEPEDFAVYYCQQGKKLWSFGGGTKVEIK
B2: NEG086: anti-cKIT antibody of Table 1, VH SEQ ID NO 100, VL SEQ ID NO 109 (antibody, V domains shown)
VH: EVQLVESGGGLVQPGGSLRLSCAASGFTFSDYYMAWVRQAPGKGLEWVANINQIAGSTYYVDSVQGRFTISRDNAKNSLYLQMNSLRAEDTAVYYCARGDYYGTTYWYFDVWGQGTTVTVSS
VL: DIQMTQSPSSLSASVGDRVTITCRASQSISSYLNWYQQKPGKAPKLLIYYTSRLQSGVPSRFSGSGSGTDFTLTISSLQPEDFATYYCQQGRRLWSFGGGTKVEIK
B3: NEG027: anti-cKIT antibody of Table 1, VH SEQ ID NO 64, VL SEQ ID NO 73 (antibody, V domains shown)
VH: EVQLVESGGGLVQPGGSLRLSCAASGFTFSDYYMAWVRQAPGKGLEWVASINQNTGSTYYLDSVRGRFTISRDNAKNSLYLQMNSLRAEDTAVYYCARGDYYGTTYWYFDVWGQGTTVTVSS
VL: EIVMTQSPATLSLSPGERATLSCRASQDISNYLNWYQQKPGQAPRLLIYYTSRLQSGIPARFSGSGSGTDYTLTISSLEPEDFAVYYCQQGKKLWSFGGGTKVEIK
B4: NEG087: anti-cKIT antibody of Table 1, VH SEQ ID NO 118, VL SEQ ID NO 127 (antibody, V domains shown)
VH: EVQLVESGGGLVQPGGSLRLSCAASGFTFSDYYMAWVRQAPGKGLEWVASINQNTGSTYYLDSVRGRFTISRDNAKNSLYLQMNSLRAEDTAVYYCARGDYYGTTYWYFDVWGQGTTVTVSS
VL: DIQMTQSPSSLSASVGDRVTITCRASQSISSYLNWYQQKPGKAPKLLIYYTSRLQSGVPSRFSGSGSGTDFTLTISSLQPEDFATYYCQQGRRLWSFGGGTKVEIK
B5: 9P3: hybridoma derived anti-cKIT antibody, VH SEQ ID NO.9, VL SEQ ID NO.18 (antibody, V domains shown)
VH: EVRLVESEGGLVQPRSSMKLSCTASGFTFSDYYMAWVRQVPEKGLEWVANINYDGSSTYYLDSLKSRFIISRDNAKNILYLQMSSLKSEDTATYYCARGDYYGTTYWYFDVWGTGTTVTVSS
VL: DIQMTQTTSSLSASLGDRVTISCRASQDISNYLNWYQQKPDGTVKLLIYYTSRLQSGVPSRFSGSGSGTDYSLTISNLEQEDIATYFCQQGKKLWSFGGGTKLEIKR

Assays:
GIST cell lines = settings: Edris et al. 2013; cited from earlier work
[1] = test system: HAMLX5343 systemic primary AML xenograft; experiment: In vivo efficacy, HAMLX5343 systemic primary AML xenograft
Experimental: (§4) Female NSG mice were implanted systemically (via tail vein injection) with 5×10^6 cells in phosphate buffered saline.
(§5) Leukemic burden was measured by flow cytometry. Weekly, blood was collected from all study animals via the tail. […] The stained cells were analyzed on a FACS Canto flow cytometer (BD Biosciences) (FIG. 52A). Body weights were measured twice weekly (FIG. 52B).

[2] = test system: HAMLX5343 systemic primary AML xenograft; settings: mouse, in vivo, ip
Experimental: as §4, §5

Uke-1 cells = experiment: ADCC activity in vitro (Calcein release, NK3.3 effector cells); type: cell-based, human; settings: Uke-1 target cells, NK3.3 effector cells 20 to 1, FIG. 17
Experimental: In brief, Uke-1 cells were stained with Calcein acetoxy-methyl ester (Calcein-AM; Sigma-Aldrich catalog #17783-5MG, St. Louis, Mo.), washed twice, pipetted into a 96-well microtiterplate (96 well, U-bottomed, clear plastic; Corning Costar, catalog #650 160, Tewksbury, Mass.) at a concentration of 5000 cells per well and pre-incubated for 10 min with a serial dilution of the above mentioned antibodies and proteins (from 50,000 to 0.003 μg per ml) before adding the effector NK3.3 cells for 1 hour in an effector to target ratio of 20 to 1. In order to calculate the antibody specific lysis of the target cells, a parallel incubation of target cells only without antibody or effector cells served as a baseline and negative control, whereas the positive control or maximal lysis or hundred percent specific lysis was determined by lysis of target cells only with a 1% Triton-X 100 solution. […] Following a co-incubation of target and effector cells, the microtiterplate was centrifuged and an aliquot of the supernatant fluid was transferred to another microtiterplate (96 well, flat-bottomed, black with clear bottom; (Corning Costar, catalog #3904, Tewksbury, Mass.) and the concentration of free Calcein in solution was determined with a fluorescence counter (Victor 3® multilabel counter, Perkin Elmer, Waltham, Mass.).

mouse cKIT ECD = molecular target: T1, mouse cKIT ECD; experiment: SPR (Biacore 2000) affinity measurement; type: binding; settings: 25° C., antibody captured, ECD in solution
Experimental: (§1) Affinity of the antibodies to cKIT species orthologues and also to cKIT was determined using SPR technology using a Biacore® 2000 instrument (GE Healthcare, Pittsburgh, Pa.) and with CM5 sensor chips.
(§2) Briefly, HBS-P (0.01 M HEPES, pH 7.4, 0.15 M NaCl, 0.005% Surfactant P20) supplemented with 2% Odyssey® blocking buffer (Li-Cor Biosciences, Lincoln, Nebr.) was used as the running buffer for all the experiments. The immobilization level and analyte interactions were measured by response unit (RU). Pilot experiments were performed to test and confirm the feasibility of the immobilization of the anti-human Fc antibody (Catalog number BR100839, GE Healthcare, Pittsburgh, Pa.) and the capture of the test antibodies.
(§3) For kinetic measurements, the experiments were performed in which the antibodies were captured to the sensor chip surface via the immobilized anti-human Fc antibody and the ability of the cKIT proteins to bind in free solution was determined Briefly, 25 μg/ml of anti-human Fc antibody at pH 5 was immobilized on a CM5 sensor chip through amine coupling at flow rate of 5 μl/minute on all two flow cells to reach 10,500 RUs. 0.1-1 μg/ml of test antibodies were then injected at 10 μl/min for 1 minute. Captured levels of the antibodies were generally kept below 200 RUs. Subsequently, 3.125-50 nM of cKIT receptor extracellular domains (ECD) were diluted in a 2-fold series and injected at a flow rate of 40 μl/min for 3 min over both reference and test flow cells. Table of tested ECDs is listed below. Dissociation of the binding was followed for 10 min. After each injection cycle, the chip surface was regenerated with 3 M MgCl2 at 10 μl/min for 30 s.

rat cKIT ECD = experiment: SPR (Biacore 2000) affinity measurement; type: binding; settings: 25° C., antibody captured, ECD in solution
Experimental: as §1, §2, §3

SCF binding to cKIT = SCF binding to cKIT (Homo sapiens, UniProt P10721); experiment: Competition assays using ELISA and FACS, SCF binding to cKIT
[3] = test system: GIST T1 subcutaneous tumor xenograft; settings: GIST T1, SCID-beige mice, single i.v. dose 10 mg/kg
Experimental: The anti-tumor activity of anti-cKIT ADCs was evaluated in several tumor xenograft models.

[4] = HAMLX5343, Day 71, 50 mg/kg Daily x 6 days, intraperitoneally

rat cKIT ECD, sequence (as listed by the source): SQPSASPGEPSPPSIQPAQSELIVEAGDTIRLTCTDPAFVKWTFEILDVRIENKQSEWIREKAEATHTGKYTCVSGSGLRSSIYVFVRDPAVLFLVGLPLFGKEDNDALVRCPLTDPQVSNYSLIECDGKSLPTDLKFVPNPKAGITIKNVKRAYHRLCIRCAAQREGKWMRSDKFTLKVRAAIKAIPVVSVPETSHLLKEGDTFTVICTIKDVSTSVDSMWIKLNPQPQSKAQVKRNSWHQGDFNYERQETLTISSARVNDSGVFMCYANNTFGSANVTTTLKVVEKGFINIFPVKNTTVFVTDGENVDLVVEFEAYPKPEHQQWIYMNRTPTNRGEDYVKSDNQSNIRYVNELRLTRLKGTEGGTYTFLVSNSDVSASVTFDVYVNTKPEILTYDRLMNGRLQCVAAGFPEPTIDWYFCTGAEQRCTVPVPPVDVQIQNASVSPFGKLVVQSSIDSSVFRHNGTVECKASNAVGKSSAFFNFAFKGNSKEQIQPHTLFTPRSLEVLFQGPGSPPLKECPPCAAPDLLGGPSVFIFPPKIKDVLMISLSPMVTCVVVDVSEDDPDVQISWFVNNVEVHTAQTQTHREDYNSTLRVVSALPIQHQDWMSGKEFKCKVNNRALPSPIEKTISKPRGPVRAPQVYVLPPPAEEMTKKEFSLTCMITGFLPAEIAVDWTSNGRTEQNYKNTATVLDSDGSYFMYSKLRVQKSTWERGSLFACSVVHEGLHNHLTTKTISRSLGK
SCF binding to cKIT, sequence (P10721 26-976): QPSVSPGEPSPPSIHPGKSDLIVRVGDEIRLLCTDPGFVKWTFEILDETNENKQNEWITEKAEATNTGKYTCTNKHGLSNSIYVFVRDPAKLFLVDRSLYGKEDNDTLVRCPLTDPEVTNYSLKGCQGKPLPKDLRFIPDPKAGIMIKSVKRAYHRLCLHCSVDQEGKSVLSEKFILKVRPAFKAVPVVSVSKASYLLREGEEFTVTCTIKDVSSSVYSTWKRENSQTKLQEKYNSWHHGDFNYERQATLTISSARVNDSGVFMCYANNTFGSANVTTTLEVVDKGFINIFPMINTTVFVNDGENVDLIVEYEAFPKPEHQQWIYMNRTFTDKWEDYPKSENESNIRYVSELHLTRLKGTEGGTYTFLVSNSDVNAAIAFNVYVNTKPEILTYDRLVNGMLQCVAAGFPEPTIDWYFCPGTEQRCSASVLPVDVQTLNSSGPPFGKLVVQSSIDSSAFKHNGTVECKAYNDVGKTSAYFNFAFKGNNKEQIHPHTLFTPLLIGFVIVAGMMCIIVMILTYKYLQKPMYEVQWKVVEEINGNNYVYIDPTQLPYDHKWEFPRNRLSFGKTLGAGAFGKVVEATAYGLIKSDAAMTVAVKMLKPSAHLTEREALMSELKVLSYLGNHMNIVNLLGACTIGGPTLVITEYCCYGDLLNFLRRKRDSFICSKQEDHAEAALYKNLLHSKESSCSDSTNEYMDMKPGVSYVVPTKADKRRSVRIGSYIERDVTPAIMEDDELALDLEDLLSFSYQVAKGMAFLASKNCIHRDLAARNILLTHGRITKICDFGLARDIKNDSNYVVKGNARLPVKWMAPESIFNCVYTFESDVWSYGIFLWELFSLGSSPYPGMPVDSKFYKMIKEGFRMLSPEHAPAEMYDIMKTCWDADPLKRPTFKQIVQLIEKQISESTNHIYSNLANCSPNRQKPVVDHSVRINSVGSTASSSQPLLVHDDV

| Molecule | Affinity mouse cKIT (mouse cKIT ECD) | Affinity to rat cKIT (rat cKIT ECD) | also measured |
| --- | --- | --- | --- |
| Cc1ccc(NC(=O)c2ccc(CN3CCN(C)CC3)cc2)cc1Nc1nccc(-c2cccnc2)n1 [Imatinib] |  |  | cell proliferation (GIST cell lines): significantly reduce proliferation of GIST cell lines |
| Nc1ccn([C@@H]2O[C@H](CO)[C@@H](O)[C@@H]2O)c(=O)n1 [ARA-C, cytarabine, reference compound] |  |  | Mean change of body weight (from day 67) [1, 4]: 2.3 ± 2.3 % ± SEM; Mean change of tumor volume [1, 4]: −6.6 ± 2.1 % CD45 positive PBMC's ± SEM; Regression [1, 4]: −52.5%; antitumor activity (leukemic burden) ([1]; HAMLX5343, intraperitoneally daily for 6 days): efficacious in three of the animals; bodyweight loss ([1]; HAMLX5343, intraperitoneally daily for 6 days, three of six animals): > 20%; toxicity [2]: highly toxic |
| MabCampath [reference compound] |  |  | ADCC (Uke-1 cells): mediated ADCC killing of the target cells |
| B1 | Not reactive | Not reactive |  |
| B2 | Not reactive | Not reactive |  |
| B3 | Not reactive | Not reactive |  |
| B4 | Not reactive | Not reactive |  |
| B5 | Not reactive | Not reactive | blocking of SCF binding to cKIT (SCF binding to cKIT): partial blocking; antitumor activity (tumor volume) [3]: Neither the control non-specific IgG1 ADCs nor the unconjugated 9P3 were efficacious |
